Target: T1, Mayaro virus (MAYV) structural proteins on infected cells (Mayaro virus)
T1 construct: whole, on cells
Experiment: flow cytometry, surface staining of MAYV-infected Vero cells with serial dilutions, % binding to infected cells

B1: Mxra8-Fc (extracellular domain of mouse Mxra8 fused to mouse IgG2b Fc) (Fc fusion)
chain: SGPSGTAAASSSLVSESVVSLAAGTQAVLRCQSPRMVWTQDRLHDRQRVVHWDLSGGPGSQRRRLVDMYSAGEQRVYEPRDRDRLLLSPSAFHDGNFSLLIRAVDRGDEGVYTCNLHHHYCHLDESLAVRLEVTEDPLLSRAYWDGEKEVLVVAHGAPALMTCINRAHVWTDRHLEEAQQVVHWDRQLPGVSHDRADRLLDLYASGERRAYGPPFLRDRVSVNTNAFARGDFSLRIDELERADEGIYSCHLHHHYCGLHERRVFHLQVTEPAFEPPARASPGNGSGHSSAPSPDPTLTRGHSIINVIVPEDHTHPSGPISTINPCPPCKECHKCPAPNLEGGPSVFIFPPNIKDVLMISLTPKVTCVVVDVSEDDPDVQISWFVNNVEVHTAQTQTHREDYNSTIRVVSTLPIQHQDWMSGKEFKCKVNNKDLPSPIERTISKIKGLVRAPQVYILPPPAEQLSRKDVSLTCLVVGFNPGDISVEWTSNGHTEENYKDTAPVLDSDGSYFIYSKLNMKTSKWEKTDSFSCNVRHEGLKNYYLKKTISRSPGK
notes: also called mMxra8-Fc; mouse Mxra8-Fc
- EC50 (read off the curve): ~3 ng/mL

Reference: US20240124553A1 (WASHINGTON UNIVERSITY, published 2024)
